From article PMC11607802 come the findings set out here.

This test deals with Butelase AY (Butelase 1 V237A/T238Y), zymogenic form before activation (Clitoria ternatea). Put plainly: SEC. Background: In gel filtration, larger molecules generally elute earlier.

Consider “Butelase AY (Butelase 1 V237A/T238Y), zymogenic form before activation (enzyme)”, for which the stoichiometry N is 2.

What is called stoichiometry N is a count of units in the complex or per binding partner.
